In experiment [1] the target is T1, 人CD20蛋白 (human CD20) (human) (UniProt P11836).
T1 sequence (looked up): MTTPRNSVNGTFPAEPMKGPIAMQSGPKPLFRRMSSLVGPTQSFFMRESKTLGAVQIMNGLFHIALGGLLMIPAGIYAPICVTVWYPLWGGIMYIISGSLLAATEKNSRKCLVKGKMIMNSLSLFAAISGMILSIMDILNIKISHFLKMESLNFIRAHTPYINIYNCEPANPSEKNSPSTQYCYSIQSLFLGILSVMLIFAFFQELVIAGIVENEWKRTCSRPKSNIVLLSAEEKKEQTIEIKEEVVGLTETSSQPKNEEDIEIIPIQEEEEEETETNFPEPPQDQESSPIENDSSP
The experiment in a line: SPR (Biacore), antibody captured on anti-human capture CM5 chip, antigen as analyte from 10 nM, 1:1 kinetic model.

Experiment [2] deals with T1, 人CD20蛋白 (human CD20) (human). The experiment in a line: indirect ELISA, recombinant human CD20 coated, rabbit anti-human IgG Fc-HRP. Background: ELISA stands for enzyme-linked immunosorbent assay.

B1: 人源化抗体HB12 (humanized anti-CD20 antibody HB12) (antibody, part only; not given: IgG1 and kappa constant regions, human IgG1, V domains shown, part only)
VH: QVQLVQSGSELKKPGASVKVSCKASSYMHAVGMNWVKQAPGQGFEWMGWIYADSGTGGVTYVKGIIPTYAQGFTGRFVFSLDTSVSTAYLQISSLKAEDTATYYCDYYDGLYGMDVYGAGSFWGQGTTVTVSS
In experiment [1], B1 had a dissociation constant Kd of 0.0218 nM. Besides, the half-maximal effective concentration (EC50) in experiment [2] stood at 0.0256 mg/L.

Broadly, the Kd is the free concentration of one partner at which half of the binding sites on the other are occupied at equilibrium, for simple one-to-one binding. Read a high Kd as weaker binding. In general, EC50 refers to the concentration needed to bring the measured effect to its halfway point.

The record behind these values is patent CN111100204A.
